Ten molecules from PMC13022674, “Thymine DNA glycosylase binds to R-loops and excises 5-formyl and 5-carboxyl cytosine from DNA/RNA hybrids” can be followed below.

In data set [1] the target is T1, TDG (thymine DNA glycosylase) (human, UniProt Q13569 1-410). Briefly: EMSA; Hill 2.9; EMSA: 5 nM substrate, 100 mM NaCl, 2.5 mM MgCl2, 10 mM Tris-HCl pH 7.5, 5% glycerol, 30 min 30 C, 0.6% agarose 1x TBE 4 C; NMR: 0.1 M NaCl, 0.03 mM TCEP, 15 mM. The following applies: protein: recombinant; tags: His tag (pET28a, TALON purified); label: 5'-FAM strand 1; 5' overhang 1 nt (strand 1). In general terms: Mobility shift assays separate free from complexed probe on a gel.

The target in data set [2] is T1, TDG (thymine DNA glycosylase). Briefly: EMSA; Hill 1.8; EMSA: 5 nM substrate, 100 mM NaCl, 2.5 mM MgCl2, 10 mM Tris-HCl pH 7.5, 5% glycerol, 30 min 30 C, 0.6% agarose 1x TBE 4 C; NMR: 0.1 M NaCl, 0.03 mM TCEP, 15 mM. As to conditions: protein: recombinant; tags: His tag (pET28a, TALON purified); label: 5'-FAM strand 1; blunt; G-UF pair intended.
Data set [3] shares this target. In words: EMSA; Hill 2.0; EMSA: 5 nM substrate, 100 mM NaCl, 2.5 mM MgCl2, 10 mM Tris-HCl pH 7.5, 5% glycerol, 30 min 30 C, 0.6% agarose 1x TBE 4 C; NMR: 0.1 M NaCl, 0.03 mM TCEP, 15 mM. As to conditions: protein: recombinant; tags: His tag (pET28a, TALON purified); label: 5'-FAM strand 1; blunt.
For data set [4] the target is unchanged. Briefly: EMSA; Hill 2.7; EMSA: 5 nM substrate, 100 mM NaCl, 2.5 mM MgCl2, 10 mM Tris-HCl pH 7.5, 5% glycerol, 30 min 30 C, 0.6% agarose 1x TBE 4 C; NMR: 0.1 M NaCl, 0.03 mM TCEP, 15 mM. As to conditions: protein: recombinant; tags: His tag (pET28a, TALON purified); label: 5'-FAM strand 1; blunt.
Data set [5] has the same target. Briefly: EMSA; Hill 4.9; EMSA: 5 nM substrate, 100 mM NaCl, 2.5 mM MgCl2, 10 mM Tris-HCl pH 7.5, 5% glycerol, 30 min 30 C, 0.6% agarose 1x TBE 4 C; NMR: 0.1 M NaCl, 0.03 mM TCEP, 15 mM. The following applies: protein: recombinant; tags: His tag (pET28a, TALON purified); label: 5'-FAM strand 1; blunt.
The target is the same in data set [6]. Briefly: EMSA; Hill 4.5; EMSA: 5 nM substrate, 100 mM NaCl, 2.5 mM MgCl2, 10 mM Tris-HCl pH 7.5, 5% glycerol, 30 min 30 C, 0.6% agarose 1x TBE 4 C; NMR: 0.1 M NaCl, 0.03 mM TCEP, 15 mM. As to conditions: protein: recombinant; tags: His tag (pET28a, TALON purified); label: 5'-FAM strand 1; blunt.
Data set [7] has the same target. Briefly: EMSA; Hill 3.0; EMSA: 5 nM substrate, 100 mM NaCl, 2.5 mM MgCl2, 10 mM Tris-HCl pH 7.5, 5% glycerol, 30 min 30 C, 0.6% agarose 1x TBE 4 C; NMR: 0.1 M NaCl, 0.03 mM TCEP, 15 mM. As to conditions: protein: recombinant; tags: His tag (pET28a, TALON purified); label: 5'-FAM strand 1; blunt.
The target is the same in data set [8]. Briefly: EMSA; Hill 2.3; EMSA: 5 nM substrate, 100 mM NaCl, 2.5 mM MgCl2, 10 mM Tris-HCl pH 7.5, 5% glycerol, 30 min 30 C, 0.6% agarose 1x TBE 4 C; NMR: 0.1 M NaCl, 0.03 mM TCEP, 15 mM. As to conditions: protein: recombinant; tags: His tag (pET28a, TALON purified); label: 5'-FAM strand 1; blunt.
For data set [9] the target is unchanged. Briefly: EMSA; Hill 6.1; EMSA: 5 nM substrate, 100 mM NaCl, 2.5 mM MgCl2, 10 mM Tris-HCl pH 7.5, 5% glycerol, 30 min 30 C, 0.6% agarose 1x TBE 4 C; NMR: 0.1 M NaCl, 0.03 mM TCEP, 15 mM. As to conditions: protein: recombinant; tags: His tag (pET28a, TALON purified); label: 5'-FAM strand 1; 5' overhang 1 nt (strand 1).
Data set [10] shares this target. Briefly: EMSA; EMSA: 5 nM substrate, 100 mM NaCl, 2.5 mM MgCl2, 10 mM Tris-HCl pH 7.5, 5% glycerol, 30 min 30 C, 0.6% agarose 1x TBE 4 C; NMR: 0.1 M NaCl, 0.03 mM TCEP, 15 mM. As to conditions: protein: recombinant; tags: His tag (pET28a, TALON purified); blunt.

T1 sequence (Q13569 whole entry): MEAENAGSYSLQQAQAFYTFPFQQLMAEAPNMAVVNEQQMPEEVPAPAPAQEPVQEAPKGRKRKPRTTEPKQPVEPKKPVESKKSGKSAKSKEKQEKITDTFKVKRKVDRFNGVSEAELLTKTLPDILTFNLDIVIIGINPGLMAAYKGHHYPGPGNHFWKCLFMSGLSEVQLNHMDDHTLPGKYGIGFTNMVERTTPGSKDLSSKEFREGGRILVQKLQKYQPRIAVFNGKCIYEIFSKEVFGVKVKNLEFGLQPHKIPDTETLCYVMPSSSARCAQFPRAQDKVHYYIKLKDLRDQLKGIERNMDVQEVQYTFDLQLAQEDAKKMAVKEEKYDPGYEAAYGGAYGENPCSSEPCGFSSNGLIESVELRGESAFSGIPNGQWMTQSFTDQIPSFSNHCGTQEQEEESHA

B1: D2-C (dsDNA)
DNA 1: TGTGTCACCACTGCTCACGTACAGAGCTG
DNA 2: CAGCTCTGTACGTGAGCAGTGGTGACAC
Broadly, the Kd is the equilibrium constant for the complex coming apart. For the molecule B1, the Kd in [1] was determined as 47 nM.

B2: D1-UF (dsDNA)
DNA 1: TGAGGATGTATATATCTGAUGCGCCGGTGGAGC
DNA 2: GCTCCACCGGCGCGTACGATATATACATCCTCA
modifications: 2'-deoxy-2'-fluoroarabinouridine (UF) at strand 1 pos 20
For the molecule B2, the Kd in data set [2] was determined as 32 nM.

B3: D1-5caC (dsDNA)
DNA 1: TGAGGATGTATATATCTGACGCGCCGGTGGAGC
DNA 2: GCTCCACCGGCGCGTACGATATATACATCCTCA
modifications: 5-carboxycytosine at strand 1 pos 20
For B3, the Kd in data set [3] was determined as 25 nM.

B4: H1-5caC (DNA:RNA)
DNA: TGAGGATGTATATATCTGACGCGCCGGTGGAGC
RNA: GCUCCACCGGCGCGUACGAUAUAUACAUCCUCA
modifications: 5-carboxycytosine at strand 1 pos 20; strand 2 RNA
As to B4, the Kd in data set [4] was 31 nM.

B5: H1-5fC (DNA:RNA)
DNA: TGAGGATGTATATATCTGACGCGCCGGTGGAGC
RNA: GCUCCACCGGCGCGUACGAUAUAUACAUCCUCA
modifications: 5-formylcytosine at strand 1 pos 20; strand 2 RNA
On to B5, for which the Kd in data set [5] came out at 60 nM.

B6: H1-C (DNA:RNA)
DNA: TGAGGATGTATATATCTGACGCGCCGGTGGAGC
RNA: GCUCCACCGGCGCGUACGAUAUAUACAUCCUCA
modifications: strand 2 RNA
Turning to B6, in data set [6], the Kd is 67 nM.

B7: D1-5fC (dsDNA)
DNA 1: TGAGGATGTATATATCTGACGCGCCGGTGGAGC
DNA 2: GCTCCACCGGCGCGTACGATATATACATCCTCA
modifications: 5-formylcytosine at strand 1 pos 20
As to B7, the equilibrium dissociation constant (Kd) in [7] worked out at 56 nM.

B8: D1-C (dsDNA)
DNA 1: TGAGGATGTATATATCTGACGCGCCGGTGGAGC
DNA 2: GCTCCACCGGCGCGTACGATATATACATCCTCA
Regarding B8, the Kd in data set [8] was found to be 43 nM.

B9: H2-C (DNA:RNA)
DNA: TGTGTCACCACTGCTCACGTACAGAGCTG
RNA: CAGCUCUGUACGUGAGCAGUGGUGACAC
modifications: strand 2 RNA
Consider B9, for which the Kd in data set [9] worked out at 57 nM.

B10: TCF21-DNA (unmodified) (dsDNA)
DNA 1: TCCTAGTGTCCACCAAATTCCTCAGCGCTCGCTCACCCTCCTCTACGGCCACGACTCTGGGAGTG
DNA 2: CACTCCCAGAGTCGTGGCCGTAGAGGAGGGTGAGCGAGCGCTGAGGAATTTGGTGGACACTAGGA
With B10, the Kd in [10] is 49 nM.
